For assay [1], the target named is T1, Recombinant human VEGF165 (Peprotech, Cat #100-20) (human, UniProt P15692-4 27-191).
T1 construct: Bought protein; also called rhVEGF165; rh VEGF165
The assay is described as follows: ELISA on rhVEGF165; biotinylated anti-VpreB antibody and streptavidin-HRP detection. (In general: ELISA stands for enzyme-linked immunosorbent assay.)

The target of assay [2] is T2, His-tagged recombinant human ANG-2 (AcroBiosystems, Cat #AN2-H52H4) (human, UniProt O15123 275-496).
T2 construct: also called rhANG-2; rhANG-2-His; not shown: His tag
T2 sequence (looked up): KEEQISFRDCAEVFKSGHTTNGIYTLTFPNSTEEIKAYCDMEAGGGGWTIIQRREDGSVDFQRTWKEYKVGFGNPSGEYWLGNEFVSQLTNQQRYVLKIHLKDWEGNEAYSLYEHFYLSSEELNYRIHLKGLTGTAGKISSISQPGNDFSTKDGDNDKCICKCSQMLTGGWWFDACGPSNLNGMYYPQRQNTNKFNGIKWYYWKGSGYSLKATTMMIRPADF
The assay is described as follows: ELISA on rhANG-2; biotinylated anti-VpreB antibody and streptavidin-HRP detection. On the procedure:
SgG1 was diluted in blocking buffer at a starting concentration of 10 nM. Sab and scSv were diluted in blocking buffer at a starting concentration of 100 nM. They were then 1:3 serial diluted.

T1 sequence (P15692 other isoform, or with tags, fused parts or gaps limits assumed): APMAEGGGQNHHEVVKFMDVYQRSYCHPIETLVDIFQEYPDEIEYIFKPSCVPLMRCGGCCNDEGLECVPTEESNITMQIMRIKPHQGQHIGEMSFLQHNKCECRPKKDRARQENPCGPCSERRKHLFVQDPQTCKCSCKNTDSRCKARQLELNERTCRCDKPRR

B1: RP-014_VEGF-A_Sab (Fab, V domains shown)
VH: QVQLVQSGAEVKKPGASVKVSCKASGYTFSIYTIHWVRQAPGQGLEWMGGINPYNGNTKYAQKFQGRVTMTRDTSISTAYMELSRLRSDDTAVYYCAKAPAVFWWTGLDYWGQGTLVTVSS
VL: QPVLHQPPAMSSALGTTIRLTCTLRNDHDIGVYSVYWYQQRPGHPPRFLLRYFSQSDKSQGPQVPPRFSGSKDVARNRGYLSISELQPEDEAMYYCAMGARSSVTHVFGSGTQLTVLS
notes: also called anti-VEGF-A Sab; not shown: CH1 domain
A word on the EC50: it is the concentration giving half of the maximal effect. Consider B1, for which the EC50 in assay [1] amounted to 6.3 pM.

B2: RP-017_ANG-2_Sab (Fab, V domains shown)
VH: EVQLVESGGGLVKPGGSLRLSCAASGFTFSSYGMHWVRQAPGKGLEWVAGISADSGDKNYADSVKGRFTISRDNAKNSLYLQMNSLRAEDTAVYYCAKEFISWIYTFDYLDYWGQGTLVTVSS
VL: QPVLHQPPAMSSALGTTIRLTCTLRNDHDIGVYSVYWYQQRPGHPPRFLLRYFSQSDKSQGPQVPPRFSGSKDVARNRGYLSISELQPEDEAMYYCAMGARSSVTHVFGSGTQLTVLS
notes: also called anti-ANG-2 Sab; not shown: CH1 domain
For B2, the EC50 in assay [2] turned out to be 48.5 pM.

These data come from patent publication US20250250330A1 (REVOPSIS THERAPEUTICS, published 2025).
